According to patent US6428579B1, “Implantable prosthetic devices coated with bioactive molecules” (Brown University Research Foundation, priority 1999, dated 2002):

Experiment: Surface plasmon resonance of peptide adsorption on gold
Type: physicochemical
Settings: best fit of SPR spectra, Fresnel theory
Description: Surface plasmon resonance (SPR) was produced when a beam of p-polarized laser light impinges onto the surface of a thin metal film. The light was coupled to the metal film through a prism which was mounted on a rotating turntable. At a particular angle of incidence the E-field of the laser light interacts with the surface bound free electrons of the metal film in such a way that a charge density wave was generated at the interface of the metal and air. This excitation results in a sharp reduction in the magnitude of the reflected light (measured with a photodiode). The angle at which this occurs together with the depth and half-width of the minimum were determined by the thickness and complex refractive index of the metal film. The magnitude of the evanescent field which arises from the charge density wave decays exponentially in the direction normal to the surface. […] By fitting the Fresnel equations, firstly to the date for the uncoated metal film, and then to the metal plus thin film, the thicknesses and complex refractive indices of the metal and peptide overlayer were determined. […] Another practical advantage of this method is that peptide chemistry can be determined in aqueous environments rather than the ultrahigh vacuums needed for other surface-sensitive techniques (e.g. ESCA). […]

Arg-Gly-Asp-Cys (RGDC; printed: Arg-Gly-Asp-Cys) [fibronectin related peptide, cysteine terminated]
Film thickness of peptide layer: 23-25 Å
